Reference: IntAct's records for PubMed 31515488

B1: U3 small nucleolar RNA-associated protein 14 homolog C (Homo sapiens), Q5TAP6 (parent)
chain: MNVNQVAENLALSHQEELVDLPKNYPLSENEDEGDSDGERKHQKLLEAIISLDGKNRRKLAERSEASLKVSEFSVSSEGSGEKLGLADLLEPVKTSSSLATVKKQLNRVKSKKVVELPLNKEKIEQIHREVAFSKTSQVLSKWDPIILKNQQAEQLVFPLGKEQPAIAPIEHALSGWKARTPLEQEIFNLLHKNKQPVTDPLLTPMEKASLQAMSLEEAKMHRAELQRARALQSYYEAKARKEKKIKSKKYHKVVKKGKAKKALKEFEQLQKVNPTVALEEMEKIENARMMERMSLKHQNSGKWAKSKAIMAKYDLEARQAMQEQLAKNKELTQKLQVASESEEEEGGTEVEELLVPHVANEVQMNVDGPNPWMFRSCTSDTKEAATQEDPEQVPELAAHEVSASEAEERPVAEEEILLREFEERQSLRKRSELNQDAEPASSQETKDSSSQEVLSELRALSQKLKEKHQSRKQKASSEGTVPQVQREEPAPEEAEPLLLQRSERVQTLEELEELGKEDCFQNKELPRPVLEGQQSERTPNNRPDAPKEKKEKEQLINLQNFLTTQSPSVRSLAVPTIIEELEDEEERDQRQMIKEAFAGDDVIRDFLKEKREAVEASKPKDVDLTLPGWGEWGGVGLKPSAKKRRQFLIKAPEGPPRKDKNLPNVIISEKRNIHAAAHQVQVLPYPFTHHRQFERTIQTPIGSTWNTQRAFQKLTTPKVVTKPGHIIKPIKAEDVGYQSSSRSDLPVIQRNPKRITTRHNKEEKL
partner: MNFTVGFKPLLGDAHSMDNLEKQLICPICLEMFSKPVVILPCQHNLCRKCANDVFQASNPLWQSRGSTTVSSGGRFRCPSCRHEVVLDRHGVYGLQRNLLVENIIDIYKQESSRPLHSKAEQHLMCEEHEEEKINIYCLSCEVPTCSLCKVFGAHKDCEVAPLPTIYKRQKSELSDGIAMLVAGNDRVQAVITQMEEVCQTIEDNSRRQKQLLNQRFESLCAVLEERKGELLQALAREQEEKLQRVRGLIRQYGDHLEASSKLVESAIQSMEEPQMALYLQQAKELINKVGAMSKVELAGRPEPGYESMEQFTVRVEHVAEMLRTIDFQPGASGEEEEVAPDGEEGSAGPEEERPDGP
B2: MIF4G domain-containing protein (Homo sapiens), A9UHW6 (parent)
chain: MGEPSREEYKIQSFDAETQQLLKTALKDPGAVDLEKVANVIVDHSLQDCVFSKEAGRMCYAIIQAESKQAGQSVFRRGLLNRLQQEYQAREQLRARSLQGWVCYVTFICNIFDYLRVNNMPMMALVNPVYDCLFRLAQPDSLSKEEEVDCLVLQLHRVGEQLEKMNGQRMDELFVLIRDGFLLPTGLSSLAQLLLLEIIEFRAAGWKTTPAAHKYYYSEVSD
partner: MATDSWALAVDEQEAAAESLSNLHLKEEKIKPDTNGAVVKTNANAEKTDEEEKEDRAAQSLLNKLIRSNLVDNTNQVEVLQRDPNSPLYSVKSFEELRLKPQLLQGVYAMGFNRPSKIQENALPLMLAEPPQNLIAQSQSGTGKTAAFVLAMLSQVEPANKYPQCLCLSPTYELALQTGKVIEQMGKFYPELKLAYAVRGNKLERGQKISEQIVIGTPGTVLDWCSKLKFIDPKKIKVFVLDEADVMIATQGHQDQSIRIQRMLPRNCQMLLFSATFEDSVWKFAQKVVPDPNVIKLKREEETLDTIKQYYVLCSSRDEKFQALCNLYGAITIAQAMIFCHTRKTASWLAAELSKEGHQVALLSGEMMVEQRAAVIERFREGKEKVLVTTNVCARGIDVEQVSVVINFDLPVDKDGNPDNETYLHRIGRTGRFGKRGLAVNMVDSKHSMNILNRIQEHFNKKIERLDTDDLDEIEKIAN
B3: Polyunsaturated fatty acid 5-lipoxygenase (Homo sapiens), P09917 (parent)
chain: MPSYTVTVATGSQWFAGTDDYIYLSLVGSAGCSEKHLLDKPFYNDFERGAVDSYDVTVDEELGEIQLVRIEKRKYWLNDDWYLKYITLKTPHGDYIEFPCYRWITGDVEVVLRDGRAKLARDDQIHILKQHRRKELETRQKQYRWMEWNPGFPLSIDAKCHKDLPRDIQFDSEKGVDFVLNYSKAMENLFINRFMHMFQSSWNDFADFEKIFVKISNTISERVMNHWQEDLMFGYQFLNGCNPVLIRRCTELPEKLPVTTEMVECSLERQLSLEQEVQQGNIFIVDFELLDGIDANKTDPCTLQFLAAPICLLYKNLANKIVPIAIQLNQIPGDENPIFLPSDAKYDWLLAKIWVRSSDFHVHQTITHLLRTHLVSEVFGIAMYRQLPAVHPIFKLLVAHVRFTIAINTKAREQLICECGLFDKANATGGGGHVQMVQRAMKDLTYASLCFPEAIKARGMESKEDIPYYFYRDDGLLVWEAIRTFTAEVVDIYYEGDQVVEEDPELQDFVNDVYVYGMRGRKSSGFPKSVKSREQLSEYLTVVIFTASAQHAAVNFGQYDWCSWIPNAPPTMRAPPPTAKGVVTIEQIVDTLPDRGRSCWHLGAVWALSQFQENELFLGMYPEEHFIEKPVKEAMARFRKNLEAIVSVIAERNKKKQLPYYYLSPDRIPNSVAI
B4: Zinc finger protein Aiolos (Homo sapiens), Q9UKT9-1 (parent)
chain: MEDIQTNAELKSTQEQSVPAESAAVLNDYSLTKSHEMENVDSGEGPANEDEDIGDDSMKVKDEYSERDENVLKSEPMGNAEEPEIPYSYSREYNEYENIKLERHVVSFDSSRPTSGKMNCDVCGLSCISFNVLMVHKRSHTGERPFQCNQCGASFTQKGNLLRHIKLHTGEKPFKCHLCNYACQRRDALTGHLRTHSVEKPYKCEFCGRSYKQRSSLEEHKERCRTFLQSTDPGDTASAEARHIKAEMGSERALVLDRLASNVAKRKSSMPQKFIGEKRHCFDVNYNSSYMYEKESELIQTRMMDQAINNAISYLGAEALRPLVQTPPAPTSEMVPVISSMYPIALTRAEMSNGAPQELEKKSIHLPEKSVPSERGLSPNNSGHDSTDTDSNHEERQNHIYQQNHMVLSRARNGMPLLKEVPRSYELLKPPPICPRDSVKVINKEGEVMDVYRCDHCRVLFLDYVMFTIHMGCHGFRDPFECNMCGYRSHDRYEFSSHIARGEHRALLK
partner: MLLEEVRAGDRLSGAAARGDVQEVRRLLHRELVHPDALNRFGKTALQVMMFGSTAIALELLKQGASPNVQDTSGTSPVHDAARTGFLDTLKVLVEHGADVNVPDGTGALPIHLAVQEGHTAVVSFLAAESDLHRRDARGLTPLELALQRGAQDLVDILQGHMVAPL
B5: Heat shock factor protein 2 (Homo sapiens), Q03933 (parent)
chain: MKQSSNVPAFLSKLWTLVEETHTNEFITWSQNGQSFLVLDEQRFAKEILPKYFKHNNMASFVRQLNMYGFRKVVHIDSGIVKQERDGPVEFQHPYFKQGQDDLLENIKRKVSSSKPEENKIRQEDLTKIISSAQKVQIKQETIESRLSELKSENESLWKEVSELRAKHAQQQQVIRKIVQFIVTLVQNNQLVSLKRKRPLLLNTNGAQKKNLFQHIVKEPTDNHHHKVPHSRTEGLKPRERISDDIIIYDVTDDNADEENIPVIPETNEDVISDPSNCSQYPDIVIVEDDNEDEYAPVIQSGEQNEPARESLSSGSDGSSPLMSSAVQLNGSSSLTSEDPVTMMDSILNDNINLLGKVELLDYLDSIDCSLEDFQAMLSGRQFSIDPDLLVDLFTSSVQMNPTDYINNTKSENKGLETTKNNVVQPVSEEGRKSKSKPDKQLIQYTAFPLLAFLDGNPASSVEQASTTASSEVLSSVDKPIEVDELLDSSLDPEPTQSKLVRLEPLTEAEASEATLFYLCELAPAPLDSDMPLLDS

Variants of: B1
Conditions: with tri54_human TRIM54, Q9BYV2

Variant	effect of a mutation on the interaction
T101A	disrupting interaction strength
I170V	with no effect
V109D	with no effect

Second part, the variant after the results:

effect of a mutation on the interaction	Variant
with no effect	V570M
with no effect	K247E
with no effect	R672H

Variants of: B2
Conditions: with dd19b_human DDX19B

effect of a mutation on the interaction	Variant
with no effect	E160K

Variants of: B3
Conditions: with cep63_human CEP63, Q96MT8
Sequence of cep63_human CEP63, Q96MT8 (Q96MT8 whole entry): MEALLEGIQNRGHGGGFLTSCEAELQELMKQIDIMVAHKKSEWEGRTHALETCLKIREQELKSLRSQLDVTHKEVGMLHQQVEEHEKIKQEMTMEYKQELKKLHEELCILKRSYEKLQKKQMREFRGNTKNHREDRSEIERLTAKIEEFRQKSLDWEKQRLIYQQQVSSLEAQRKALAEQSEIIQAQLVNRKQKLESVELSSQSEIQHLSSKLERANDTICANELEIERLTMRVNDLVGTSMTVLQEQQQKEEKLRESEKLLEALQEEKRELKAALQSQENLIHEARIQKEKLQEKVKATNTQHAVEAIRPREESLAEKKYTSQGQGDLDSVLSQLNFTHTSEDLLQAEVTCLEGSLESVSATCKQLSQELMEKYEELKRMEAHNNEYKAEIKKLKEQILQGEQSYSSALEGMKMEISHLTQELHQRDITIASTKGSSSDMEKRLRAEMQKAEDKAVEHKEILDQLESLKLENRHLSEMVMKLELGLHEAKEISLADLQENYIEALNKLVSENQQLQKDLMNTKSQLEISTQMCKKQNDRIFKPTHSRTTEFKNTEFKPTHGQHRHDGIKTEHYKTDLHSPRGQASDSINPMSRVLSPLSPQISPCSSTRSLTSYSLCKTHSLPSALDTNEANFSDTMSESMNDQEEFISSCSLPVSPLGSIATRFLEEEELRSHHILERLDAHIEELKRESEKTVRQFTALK

effect of a mutation on the interaction	Variant
with no effect	E254K

Variants of: B3
Conditions: with nutm1_human NUTM1, Q86Y26
Sequence of nutm1_human NUTM1, Q86Y26 (Q86Y26 whole entry): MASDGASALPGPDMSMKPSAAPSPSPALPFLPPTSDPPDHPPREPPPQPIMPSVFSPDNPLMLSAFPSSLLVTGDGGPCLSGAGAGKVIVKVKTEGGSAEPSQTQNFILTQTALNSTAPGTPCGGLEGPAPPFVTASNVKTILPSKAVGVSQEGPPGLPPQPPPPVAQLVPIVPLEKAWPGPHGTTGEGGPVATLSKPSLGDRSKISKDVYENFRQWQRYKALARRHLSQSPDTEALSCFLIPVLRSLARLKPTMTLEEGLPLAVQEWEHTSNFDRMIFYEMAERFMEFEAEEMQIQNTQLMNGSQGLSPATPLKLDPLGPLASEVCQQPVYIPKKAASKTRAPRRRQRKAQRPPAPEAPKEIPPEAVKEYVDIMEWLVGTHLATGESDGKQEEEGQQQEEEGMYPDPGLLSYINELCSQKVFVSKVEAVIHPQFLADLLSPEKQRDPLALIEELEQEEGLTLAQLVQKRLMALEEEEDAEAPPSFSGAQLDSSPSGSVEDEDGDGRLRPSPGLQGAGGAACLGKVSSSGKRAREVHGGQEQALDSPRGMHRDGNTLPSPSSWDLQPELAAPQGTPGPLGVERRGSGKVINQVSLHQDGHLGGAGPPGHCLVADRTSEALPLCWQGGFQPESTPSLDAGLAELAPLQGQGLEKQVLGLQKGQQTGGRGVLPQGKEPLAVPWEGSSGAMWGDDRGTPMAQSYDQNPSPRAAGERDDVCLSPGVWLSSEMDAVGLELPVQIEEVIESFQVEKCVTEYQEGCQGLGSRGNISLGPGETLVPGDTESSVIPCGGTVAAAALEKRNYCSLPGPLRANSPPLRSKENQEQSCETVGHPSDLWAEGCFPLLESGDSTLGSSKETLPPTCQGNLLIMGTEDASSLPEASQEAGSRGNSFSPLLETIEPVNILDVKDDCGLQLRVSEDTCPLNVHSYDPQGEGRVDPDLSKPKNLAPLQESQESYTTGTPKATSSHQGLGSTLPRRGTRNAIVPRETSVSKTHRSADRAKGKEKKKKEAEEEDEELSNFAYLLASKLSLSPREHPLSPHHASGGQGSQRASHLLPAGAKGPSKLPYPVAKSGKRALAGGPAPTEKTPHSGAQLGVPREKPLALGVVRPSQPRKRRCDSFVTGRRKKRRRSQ

effect of a mutation on the interaction	Variant
with no effect	E254K

Variants of: B4
Conditions: with cdn2d_human CDKN2D

effect of a mutation on the interaction	Variant
with no effect	I338M

Variants of: B4
Conditions: with cdn2d_human CDKN2D
Remark: another data set of the same source

effect of a mutation on the interaction	Variant
with no effect	A24V
with no effect	N119D

Variants of: B5
Conditions: with mtus2_human MTUS2, Q5JR59
Sequence of mtus2_human MTUS2, Q5JR59 (Q5JR59 whole entry): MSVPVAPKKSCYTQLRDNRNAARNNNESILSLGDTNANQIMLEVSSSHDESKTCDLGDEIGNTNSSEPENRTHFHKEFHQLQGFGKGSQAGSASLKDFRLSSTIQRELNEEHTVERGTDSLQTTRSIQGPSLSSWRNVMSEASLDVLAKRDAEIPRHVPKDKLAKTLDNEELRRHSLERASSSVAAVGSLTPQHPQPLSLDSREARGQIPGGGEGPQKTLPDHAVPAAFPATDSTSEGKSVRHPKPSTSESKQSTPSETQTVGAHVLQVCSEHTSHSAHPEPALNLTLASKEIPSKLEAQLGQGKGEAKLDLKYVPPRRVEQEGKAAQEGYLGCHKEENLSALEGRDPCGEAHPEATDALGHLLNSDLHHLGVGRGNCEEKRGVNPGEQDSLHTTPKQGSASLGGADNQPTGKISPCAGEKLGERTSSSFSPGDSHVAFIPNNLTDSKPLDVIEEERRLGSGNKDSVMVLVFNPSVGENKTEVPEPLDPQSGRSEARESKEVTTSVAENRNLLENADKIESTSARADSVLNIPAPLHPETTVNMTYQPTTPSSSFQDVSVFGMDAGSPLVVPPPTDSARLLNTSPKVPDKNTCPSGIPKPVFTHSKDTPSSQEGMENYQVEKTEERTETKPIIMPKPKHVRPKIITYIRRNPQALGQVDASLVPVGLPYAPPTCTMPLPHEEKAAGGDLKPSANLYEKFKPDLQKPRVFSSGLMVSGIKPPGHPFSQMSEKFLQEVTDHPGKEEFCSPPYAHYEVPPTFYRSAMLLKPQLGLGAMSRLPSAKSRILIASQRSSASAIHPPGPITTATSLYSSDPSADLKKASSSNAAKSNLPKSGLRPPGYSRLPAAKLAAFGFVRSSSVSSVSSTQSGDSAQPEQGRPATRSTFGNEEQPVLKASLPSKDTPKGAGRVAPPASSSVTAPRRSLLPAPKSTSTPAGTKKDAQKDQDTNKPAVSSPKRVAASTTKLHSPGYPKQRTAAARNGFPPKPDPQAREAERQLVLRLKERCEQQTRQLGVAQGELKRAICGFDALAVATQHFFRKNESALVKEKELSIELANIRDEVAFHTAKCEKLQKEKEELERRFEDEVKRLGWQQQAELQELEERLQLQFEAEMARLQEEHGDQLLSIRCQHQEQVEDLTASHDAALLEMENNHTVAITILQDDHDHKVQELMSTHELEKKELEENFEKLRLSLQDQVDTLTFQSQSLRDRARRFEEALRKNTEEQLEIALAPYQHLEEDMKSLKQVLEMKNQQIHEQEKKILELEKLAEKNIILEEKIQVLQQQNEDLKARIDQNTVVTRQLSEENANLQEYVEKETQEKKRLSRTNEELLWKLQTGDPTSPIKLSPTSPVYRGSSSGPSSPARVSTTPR

effect of a mutation on the interaction	Variant
with no effect	V287I
with no effect	D222V
with no effect	Q34H

Variants of: B5
Conditions: with nup62_human NUP62, P37198
Sequence of nup62_human NUP62, P37198 (P37198 whole entry): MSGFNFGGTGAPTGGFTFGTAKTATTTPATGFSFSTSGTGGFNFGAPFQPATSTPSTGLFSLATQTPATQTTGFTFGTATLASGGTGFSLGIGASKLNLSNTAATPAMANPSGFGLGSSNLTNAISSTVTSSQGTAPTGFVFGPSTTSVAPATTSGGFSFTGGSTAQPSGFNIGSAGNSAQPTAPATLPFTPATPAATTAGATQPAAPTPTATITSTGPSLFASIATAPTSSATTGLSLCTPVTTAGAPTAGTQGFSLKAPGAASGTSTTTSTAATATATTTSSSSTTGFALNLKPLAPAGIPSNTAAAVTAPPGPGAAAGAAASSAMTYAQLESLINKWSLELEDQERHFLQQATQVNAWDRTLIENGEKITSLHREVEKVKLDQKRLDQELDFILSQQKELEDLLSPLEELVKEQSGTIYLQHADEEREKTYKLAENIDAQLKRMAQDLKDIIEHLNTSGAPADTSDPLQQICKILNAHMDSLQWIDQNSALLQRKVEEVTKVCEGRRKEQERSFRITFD

effect of a mutation on the interaction	Variant
with no effect	V287I
with no effect	D222V
with no effect	Q34H

Variants of: B5
Conditions: with wdr5_human WDR5, P61964

effect of a mutation on the interaction	Variant
with no effect	V287I
with no effect	D222V
with no effect	Q34H

Variants of: B5
Conditions: with tpm3_human TPM3, P06753
Sequence of tpm3_human TPM3, P06753 (P06753 whole entry): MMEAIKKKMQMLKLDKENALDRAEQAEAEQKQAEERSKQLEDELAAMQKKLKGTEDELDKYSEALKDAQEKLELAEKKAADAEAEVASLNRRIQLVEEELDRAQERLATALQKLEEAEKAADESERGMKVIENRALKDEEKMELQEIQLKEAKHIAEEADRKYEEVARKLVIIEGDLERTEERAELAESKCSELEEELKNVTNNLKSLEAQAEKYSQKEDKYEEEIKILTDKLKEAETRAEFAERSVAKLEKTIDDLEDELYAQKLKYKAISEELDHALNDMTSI

effect of a mutation on the interaction	Variant
with no effect	V287I
with no effect	D222V
with no effect	Q34H
